The values that follow come from US20240287138A1, “CYCLIC PEPTIDES FOR INHIBITING TNF RECEPTOR 1 ACTIVITY” (Merck Sharp & Dohme LLC, priority 2023, published 2024).

Numbered stars: 1 amine (or outer) side, 2 acyl side, 3 side chain; on linkers, the order of the positions; unused ones are H or OH. Bridge positions count the residues as written; N and C are the ends. Square brackets hold non-standard residues; d marks the D form. bhcLeu = (1R,3S)-3-aminocyclopentane-1-carboxylic acid, O=C([C@@H]1CC[C@H](N[*:1])C1)[*:2]; FX1 = N5-(Pyridin-3-yl)-L-glutamine, O=C(CC[C@H](N[*:1])C(=O)[*:2])Nc1cccnc1; Ala(2-carboxypyrimidin-5-yl) = N[C@@H](Cc1cnc(C(=O)O)nc1)C(=O)O; Trp(βS-Me,7-OMe) = COc1cccc2c([C@H](C)[C@H](N)C(=O)O)c[nH]c12; NEtdA = N-ethyl-D-alanine, CCN([C@H](C)C(=O)[*:2])[*:1]; Trp(7-Cl) = N[C@@H](Cc1c[nH]c2c(Cl)cccc12)C(=O)O; Phe(4-CONH2) = NC(=O)c1ccc(C[C@H](N)C(=O)O)cc1; Phe(4-COOH) = N[C@@H](Cc1ccc(C(=O)O)cc1)C(=O)O; Trp(7-aza) = N[C@@H](Cc1c[nH]c2ncccc12)C(=O)O; Pip(5R-OH) = O=C(O)[C@@H]1CC[C@@H](O)CN1; Pip(4-aza) = O=C(O)[C@@H]1CNCCN1; 4Pal = N[C@@H](Cc1ccncc1)C(=O)O; NMeE = CN[C@@H](CCC(=O)O)C(=O)O; dHyp = O=C(O)[C@H]1C[C@H](O)CN1; NMeS = CN[C@@H](CO)C(=O)O; αMeS = C[C@](N)(CO)C(=O)O; Nle = CCCC[C@H](N)C(=O)O; Pip2c = not defined here; Sar = CNCC(=O)O

The chains are these.
B1: SEQ ID NO. 158 (peptide)
peptide: {CH2CO}-[Nle][4Pal][Pip2c][Trp(7-aza)][NMeE]N[4Pal][Trp(7-Cl)][αMeS][Phe(4-COOH)][TyrOCF3][Sar][Trp(βS-Me,7-OMe)]C-NH2
modifications: thioether N-14; reading uncertain; also: printed as cyclo(ClAc-Nle-4Pal-Pip2c-Trp7az-NMeE-N-4Pal-Trp7Cl-aMeS-Phe4COOH-TyrOCF3-Sar-SbMeW7OMe-C)-NH2
B2: SEQ ID NO. 166 (peptide)
peptide: cyclo([bhcLeu][FX1][4Pal][NMeS]W[NMeE]N[4Pal][Trp(7-Cl)][αMeS][Phe(4-COOH)]Y[Sar][Trp(βS-Me,7-OMe)])
SMILES: COc1cccc2c([C@H](C)[C@@H]3NC(=O)CN(C)C(=O)[C@H](Cc4ccc(O)cc4)NC(=O)[C@H](Cc4ccc(C(=O)O)cc4)NC(=O)[C@](C)(CO)NC(=O)[C@H](Cc4c[nH]c5c(Cl)cccc45)NC(=O)[C@H](Cc4ccncc4)NC(=O)[C@H](CC(N)=O)NC(=O)[C@H](CCC(=O)O)N(C)C(=O)[C@H](Cc4c[nH]c5ccccc45)NC(=O)[C@H](CO)N(C)C(=O)[C@H](Cc4ccncc4)NC(=O)[C@H](CCC(=O)Nc4cccnc4)NC(=O)[C@@H]4CC[C@@H](C4)NC3=O)c[nH]c12
B3: SEQ ID NO. 178 (peptide)
peptide: cyclo([bhcLeu][Nle][4Pal][Pip(4-aza)]W[NMeE]N[4Pal][Trp(7-Cl)][αMeS][Phe(4-COOH)]H[Sar][Trp(βS-Me,7-OMe)])
SMILES: CCCC[C@@H]1NC(=O)[C@@H]2CC[C@@H](C2)NC(=O)[C@H]([C@@H](C)c2c[nH]c3c(OC)cccc23)NC(=O)CN(C)C(=O)[C@H](Cc2c[nH]cn2)NC(=O)[C@H](Cc2ccc(C(=O)O)cc2)NC(=O)[C@](C)(CO)NC(=O)[C@H](Cc2c[nH]c3c(Cl)cccc23)NC(=O)[C@H](Cc2ccncc2)NC(=O)[C@H](CC(N)=O)NC(=O)[C@H](CCC(=O)O)N(C)C(=O)[C@H](Cc2c[nH]c3ccccc23)NC(=O)[C@@H]2CNCCN2C(=O)[C@H](Cc2ccncc2)NC1=O
B4: SEQ ID NO. 186 (peptide)
peptide: {CH2CO}-[Nle][4Pal][Pip(5R-OH)]W[NEtdA]N[4Pal][Trp(7-Cl)][αMeS][Phe(4-CONH2)]Y[Sar][Trp(βS-Me,7-OMe)]C-NH2
modifications: thioether N-14
SMILES: CCCC[C@@H]1NC(=O)CSC[C@@H](C(N)=O)NC(=O)[C@H]([C@@H](C)c2c[nH]c3c(OC)cccc23)NC(=O)CN(C)C(=O)[C@H](Cc2ccc(O)cc2)NC(=O)[C@H](Cc2ccc(C(N)=O)cc2)NC(=O)[C@](C)(CO)NC(=O)[C@H](Cc2c[nH]c3c(Cl)cccc23)NC(=O)[C@H](Cc2ccncc2)NC(=O)[C@H](CC(N)=O)NC(=O)[C@@H](C)N(CC)C(=O)[C@H](Cc2c[nH]c3ccccc23)NC(=O)[C@@H]2CC[C@@H](O)CN2C(=O)[C@H](Cc2ccncc2)NC1=O
B5: SEQ ID NO. 191 (peptide)
peptide: cyclo([bhcLeu][Nle][4Pal][Pip(5R-OH)]W[dHyp]N[Phe(4-COOH)][Trp(7-Cl)][αMeS][Phe(4-CONH2)][Ala(2-carboxypyrimidin-5-yl)][Sar][Trp(βS-Me,7-OMe)])
SMILES: CCCC[C@@H]1NC(=O)[C@@H]2CC[C@@H](C2)NC(=O)[C@H]([C@@H](C)c2c[nH]c3c(OC)cccc23)NC(=O)CN(C)C(=O)[C@H](Cc2cnc(C(=O)O)nc2)NC(=O)[C@H](Cc2ccc(C(N)=O)cc2)NC(=O)[C@](C)(CO)NC(=O)[C@H](Cc2c[nH]c3c(Cl)cccc23)NC(=O)[C@H](Cc2ccc(C(=O)O)cc2)NC(=O)[C@H](CC(N)=O)NC(=O)[C@H]2C[C@H](O)CN2C(=O)[C@H](Cc2c[nH]c3ccccc23)NC(=O)[C@@H]2CC[C@@H](O)CN2C(=O)[C@H](Cc2ccncc2)NC1=O

Chain of C'-terminally 6His-tagged human soluble TNFR1 (sTNFR1, residues 1-211) (human) (chain, as listed by the source): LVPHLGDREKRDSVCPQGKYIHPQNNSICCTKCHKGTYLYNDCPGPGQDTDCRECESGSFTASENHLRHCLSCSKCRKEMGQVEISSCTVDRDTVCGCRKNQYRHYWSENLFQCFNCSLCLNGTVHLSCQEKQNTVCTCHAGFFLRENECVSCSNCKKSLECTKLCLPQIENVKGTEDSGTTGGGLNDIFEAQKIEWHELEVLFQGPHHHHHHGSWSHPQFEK

This test concerns the target C'-terminally 6His-tagged human soluble TNFR1 (sTNFR1, residues 1-211) (human). Put plainly: TR-FRET displacement of biotinylated peptide SEQ ID NO. 1 from sTNFR1-6His. (In TR-FRET formats the signal depends on donor and acceptor labels being close together.)
Usually IC50 stands for the concentration needed to halve the response being measured. A lower IC50 goes with greater potency in that assay. Molecule B1 returned an IC50 of 1790 pM.

With B2, the concentration for half-maximal inhibition (IC50) worked out at 500 pM and the Kd^app was 440 pM. Regarding B3, the Kd^app worked out at 290 pM. B4 had an IC50 of 500 pM and a Kd^app of 420 pM. In turn, B5 gave a Kd^app of 180 pM.
